# Data published in patent US8933202B2, “AXL antibodies” (U3 Pharma GmbH, priority 2007, dated 2015).
# T1: AXL (Homo sapiens, UniProt P30530)
# T1 sequence (P30530 26-894): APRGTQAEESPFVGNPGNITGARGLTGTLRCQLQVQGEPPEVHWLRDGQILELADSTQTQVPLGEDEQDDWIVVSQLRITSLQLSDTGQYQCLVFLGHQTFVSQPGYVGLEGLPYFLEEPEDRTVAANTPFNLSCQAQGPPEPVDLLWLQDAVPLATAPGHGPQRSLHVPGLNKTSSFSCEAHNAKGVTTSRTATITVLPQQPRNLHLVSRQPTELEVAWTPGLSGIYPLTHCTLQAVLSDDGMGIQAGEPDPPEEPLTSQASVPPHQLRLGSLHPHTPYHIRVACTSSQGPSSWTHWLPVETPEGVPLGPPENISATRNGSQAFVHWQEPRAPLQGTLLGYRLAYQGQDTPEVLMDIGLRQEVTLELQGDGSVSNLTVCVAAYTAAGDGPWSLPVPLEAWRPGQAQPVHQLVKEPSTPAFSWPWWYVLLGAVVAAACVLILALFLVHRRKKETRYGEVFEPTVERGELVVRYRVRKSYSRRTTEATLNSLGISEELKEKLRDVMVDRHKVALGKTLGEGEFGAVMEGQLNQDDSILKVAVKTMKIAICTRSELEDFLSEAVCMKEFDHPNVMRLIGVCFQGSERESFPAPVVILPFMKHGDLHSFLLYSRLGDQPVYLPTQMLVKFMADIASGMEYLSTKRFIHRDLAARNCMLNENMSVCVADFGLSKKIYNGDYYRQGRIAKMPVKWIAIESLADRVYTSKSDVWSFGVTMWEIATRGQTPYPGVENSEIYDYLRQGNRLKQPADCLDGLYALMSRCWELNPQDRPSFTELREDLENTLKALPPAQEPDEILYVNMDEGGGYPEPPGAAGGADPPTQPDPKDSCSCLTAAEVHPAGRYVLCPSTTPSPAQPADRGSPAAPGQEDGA
# B1: 11B7: antagonistic rat anti-AXL monoclonal antibody, rat IgG1 (antibody, V domains shown)
# VL: DIQMTQAPSSLPASLGDRVTITCRASQDIGNYLRWFQQKPGKSPRLMISGATNLAAGVPSRFSGSRSGSDYSLTISSLESEDMADYYCLQSKESPWTFGGGTKLELK
# VH: EVQLQESGPGLVKPSQSLSLTCSVTGYSITSNYWGWIRKFPGDKMEWMGYITYSGSTSYNPSLKSRISITRDTSKNQFFLQLNSVTSEDTATYYCAITTFYYWGQGVMVTVSS
# Molecular target: T1, AXL
# Assay: AXL receptor tyrosine phosphorylation ELISA
# Type: cell-based
# Set-up: expressed in transfected cells; host or cells: NIH3T3-AXL cl.7 (pLXSN-hAXL) and NCI-H292 lung cancer cells (endogenous AXL)
# Settings: 10 μg/ml antibody, 400 ng/ml Gas6; NIH3T3-AXL cl.7 fibroblasts and NCI-H292 lung cancer cells
# Method: ELISA experiments were performed in order to investigate whether the rat anti-AXL antibodies of the invention are able to block ligand Gash-mediated activation of AXL. Gas6-mediated AXL activation was detected by increased receptor tyrosine phosphorylation. In brief, on day 1, 3×10^4 cells per well were seeded in normal growth medium in flat-bottom 96 well plates. The next day, growth medium was replaced by serum-free medium to starve cells over night for 24 h. Also over night, black Maxi-Sorp 96 well plates (Nunc) were coated with mouse anti-phospho-tyrosine antibody 4G10 at 2 μg/ml PBS and 4° C. On day 3, the 4G10 antibody solution was removed and Maxi-Sorp wells were blocked with PBS, 0.5% BSA for at lest 4 h at room temperature. […] Medium was then flicked out and cells were lysed in lysis buffer (50 mM HEPES, pH 7.5, 150 mM NaCl, 1 mM EDTA, 10% glycerine, and 1% Triton X-100) supplemented with phosphatase and protease inhibitors (10 mM Na4P2O7, 1 mM phenylmethylsulfonyl fluoride, 1 mM orthovanadate, 1 mM NaF, and 0.5% aprotinin) for 30 min on ice. […] Using a Victor plate reader (Perkin Elmer), the fluorescence of each well was collected at an excitation wavelength of 430 nm and an emission wavelength of 580 nm.
molecule,measurement,value
B1,ligand-mediated AXL activation (phosphorylation),able to block or reduce ligand-mediated AXL activation
